Results reported in patent publication US20110014117A1.

How the values were obtained:
[1] = target: recombinant human soluble IGF1R fragment (R&D Systems) (human); test: competitive ELISA on coated sIGF1R fragment, inhibition of biotinylated 19D12 LCF/HCA binding; antibody at 2 ug/ml
[2] = target: recombinant human soluble IGF1R fragment (R&D Systems) (human); test: competitive ELISA on coated sIGF1R fragment, inhibition of biotinylated 19D12 LCF/HCA binding; antibody at 0.25 ug/ml
[3] = target: recombinant human soluble IGF1R fragment (R&D Systems) (human); test: competitive ELISA on coated sIGF1R fragment, competitor biotinylated 19D12 LCF/HCA; antibody at 0.007813 ug/ml
[4] = target: recombinant human soluble IGF1R fragment (R&D Systems) (human); test: competitive ELISA on coated sIGF1R fragment, inhibition of biotinylated 19D12 LCF/HCA binding; antibody at 0.125 ug/ml
[5] = target: recombinant human soluble IGF1R fragment (R&D Systems) (human); test: competitive ELISA on coated sIGF1R fragment, competitor biotinylated 19D12 LCF/HCA; antibody at 0.03125 ug/ml
[6] = target: recombinant human soluble IGF1R fragment (R&D Systems) (human); test: competitive ELISA on coated sIGF1R fragment, competitor biotinylated 19D12 LCF/HCA; antibody at 4 ug/ml
[7] = target: recombinant human soluble IGF1R fragment (R&D Systems) (human); test: competitive ELISA on coated sIGF1R fragment, inhibition of biotinylated 19D12 LCF/HCA binding; antibody at 0.007813 ug/ml
[8] = target: recombinant human soluble IGF1R fragment (R&D Systems) (human); test: competitive ELISA on coated sIGF1R fragment, competitor biotinylated 19D12 LCF/HCA; antibody at 0.125 ug/ml
[9] = target: recombinant human soluble IGF1R fragment (R&D Systems) (human); test: competitive ELISA on coated sIGF1R fragment, competitor biotinylated 19D12 LCF/HCA; antibody at 8 ug/ml
[10] = target: recombinant human soluble IGF1R fragment (R&D Systems) (human); test: competitive ELISA on coated sIGF1R fragment, competitor biotinylated 19D12 LCF/HCA; antibody at 0.5 ug/ml
[11] = target: recombinant human soluble IGF1R fragment (R&D Systems) (human); test: competitive ELISA on coated sIGF1R fragment, competitor biotinylated 19D12 LCF/HCA; antibody at 0.0625 ug/ml
[12] = target: recombinant human soluble IGF1R fragment (R&D Systems) (human); test: competitive ELISA on coated sIGF1R fragment, inhibition of biotinylated 19D12 LCF/HCA binding; antibody at 4 ug/ml
[13] = target: recombinant human soluble IGF1R fragment (R&D Systems) (human); test: competitive ELISA on coated sIGF1R fragment, competitor biotinylated 19D12 LCF/HCA; antibody at 0.25 ug/ml
[14] = target: recombinant human soluble IGF1R fragment (R&D Systems) (human); test: competitive ELISA on coated sIGF1R fragment, inhibition of biotinylated 19D12 LCF/HCA binding; antibody at 0.0625 ug/ml
[15] = target: recombinant human soluble IGF1R fragment (R&D Systems) (human); test: competitive ELISA on coated sIGF1R fragment, competitor biotinylated 19D12 LCF/HCA; antibody at 0.015625 ug/ml
[16] = target: recombinant human soluble IGF1R fragment (R&D Systems) (human); test: competitive ELISA on coated sIGF1R fragment, inhibition of biotinylated 19D12 LCF/HCA binding; antibody at 1 ug/ml
[17] = target: recombinant human soluble IGF1R fragment (R&D Systems) (human); test: competitive ELISA on coated sIGF1R fragment, competitor biotinylated 19D12 LCF/HCA; antibody at 1 ug/ml
[18] = target: recombinant human soluble IGF1R fragment (R&D Systems) (human); test: competitive ELISA on coated sIGF1R fragment, inhibition of biotinylated 19D12 LCF/HCA binding; antibody at 8 ug/ml
[19] = target: recombinant human soluble IGF1R fragment (R&D Systems) (human); test: competitive ELISA on coated sIGF1R fragment, inhibition of biotinylated 19D12 LCF/HCA binding; antibody at 0.03125 ug/ml
[20] = target: recombinant human soluble IGF1R fragment (R&D Systems) (human); test: competitive ELISA on coated sIGF1R fragment, inhibition of biotinylated 19D12 LCF/HCA binding; antibody at 0.5 ug/ml
[21] = target: recombinant human soluble IGF1R fragment (R&D Systems) (human); test: competitive ELISA on coated sIGF1R fragment, inhibition of biotinylated 19D12 LCF/HCA binding; antibody at 0.015625 ug/ml
[22] = target: recombinant human soluble IGF1R fragment (R&D Systems) (human); test: competitive ELISA on coated sIGF1R fragment, competitor biotinylated 19D12 LCF/HCA; antibody at 2 ug/ml

% Inhibition [1] [%]	% Inhibition [2] [%]	OD [3] [OD]	% Inhibition [4] [%]	OD [5] [OD]	OD [6] [OD]	% Inhibition [7] [%]	OD [8] [OD]	OD [9] [OD]	OD [10] [OD]	OD [11] [OD]	% Inhibition [12] [%]	OD [13] [OD]	% Inhibition [14] [%]	OD [15] [OD]	% Inhibition [16] [%]	OD [17] [OD]	% Inhibition [18] [%]	% Inhibition [19] [%]	% Inhibition [20] [%]	Substance	further results
100	86.8	1.23	65.3	1.1	-0.0025	4.05	0.443	-0.0045	0.021	1	100	0.169	21.7	1.25	99.9	0.001	100	13.8	98.4	anti-IGF1R antibody 19D12 LCF/HCA	% Inhibition [21]: 2.33%; OD [22]: -0.0025 OD
87.2	23.3	1.31	9.61	1.41	0.0725	-2.16	1.16	0.045	0.628	1.24	94.3	0.981	2.69	1.25	72.2	0.355	96.5	-10.1	50.9	commercially available anti-IGF1R antibody MAB391	% Inhibition [21]: 1.9%; OD [22]: 0.163 OD
